Reference: article PMC9570212, “PAUF Induces Migration of Human Pancreatic Cancer Cells Exclusively via the TLR4/MyD88/NF-κB Signaling Pathway” (International Journal of Molecular Sciences, 2022)

Biological target: human TLR4 overexpressed in Panc-1 cells (Panc-1_TLR4^OE) (human, UniProt O00206 24-839)
Test: cell-based or functional assay

human TLR4 overexpressed in Panc-1 cells (Panc-1_TLR4^OE), sequence (O00206 24-839): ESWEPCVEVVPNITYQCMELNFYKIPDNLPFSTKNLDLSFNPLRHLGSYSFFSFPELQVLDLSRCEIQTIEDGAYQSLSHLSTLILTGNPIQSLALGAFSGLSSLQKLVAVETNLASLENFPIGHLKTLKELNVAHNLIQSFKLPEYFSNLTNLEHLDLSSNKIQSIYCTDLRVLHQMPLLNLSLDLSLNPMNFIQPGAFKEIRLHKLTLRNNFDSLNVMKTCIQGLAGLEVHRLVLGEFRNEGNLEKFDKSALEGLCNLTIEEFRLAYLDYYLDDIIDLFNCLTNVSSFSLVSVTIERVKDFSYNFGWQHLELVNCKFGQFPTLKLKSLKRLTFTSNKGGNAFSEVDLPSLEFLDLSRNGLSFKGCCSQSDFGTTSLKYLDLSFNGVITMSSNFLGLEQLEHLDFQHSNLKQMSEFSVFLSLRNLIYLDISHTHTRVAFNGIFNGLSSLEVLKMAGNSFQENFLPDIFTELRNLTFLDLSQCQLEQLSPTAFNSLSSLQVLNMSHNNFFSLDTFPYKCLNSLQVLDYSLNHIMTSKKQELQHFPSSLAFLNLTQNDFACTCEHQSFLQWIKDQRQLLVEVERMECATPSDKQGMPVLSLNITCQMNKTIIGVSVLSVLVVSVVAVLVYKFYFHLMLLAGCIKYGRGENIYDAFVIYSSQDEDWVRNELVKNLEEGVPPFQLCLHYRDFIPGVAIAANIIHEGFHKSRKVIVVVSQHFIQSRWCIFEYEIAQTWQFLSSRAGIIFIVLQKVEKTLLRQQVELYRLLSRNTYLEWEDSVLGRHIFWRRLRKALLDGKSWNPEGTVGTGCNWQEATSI

B1: recombinant pancreatic adenocarcinoma up-regulated factor (PAUF) (ligand, UniProt Q96DA0 17-172, looked up)
chain: GKMYGPGGGKYFSTTEDYDHEITGLRVSVGLLLVKSVQVKLGDSWDVKLGALGGNTQEVTLQPGEYITKVFVAFQAFLRGMVMYTSKDRYFYFGKLDGQISSAYPSQEGQVLVGIYGQYQLLGIKSIGFEWNYPLEEPTTEPPVNLTYSANSPVGR
NF-κB dual-luciferase reporter activity in Panc-1 cells transiently overexpressing TLR4 (rPAUF 0.1 µg/mL), relative to Panc-1_trans Ctrl cells; no effect of rPAUF in control cells: 4.6 fold
